Results taken from US20220403048A1, “BINDING MOLECULES TO ARGINASE II [ARG2]” (Cancer Research Technology Limited, priority 2019, published 2022).

Target: recombinant human trimeric ARG2 enzyme (construct not given) (human) (UniProt P78540)
Test: cell-based or functional assay

Chain of recombinant human trimeric ARG2 enzyme (construct not given) (human) (P78540 23-354, form in doubt): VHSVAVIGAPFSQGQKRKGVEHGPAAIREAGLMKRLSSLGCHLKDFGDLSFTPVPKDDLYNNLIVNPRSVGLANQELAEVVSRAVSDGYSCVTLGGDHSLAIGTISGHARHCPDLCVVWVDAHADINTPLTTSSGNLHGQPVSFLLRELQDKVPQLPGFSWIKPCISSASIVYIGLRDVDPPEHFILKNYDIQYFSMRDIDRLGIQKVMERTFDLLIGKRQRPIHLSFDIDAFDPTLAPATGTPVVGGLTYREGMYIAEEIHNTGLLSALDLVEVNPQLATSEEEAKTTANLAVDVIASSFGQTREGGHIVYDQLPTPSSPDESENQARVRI

NIP228 human IgG1 (antibody)
EC50, In Presence of rhARG2 (T cell proliferation): > 2000 nM | Maximum % Proliferation, In Presence of rhARG2: 7%
